B1: ZBED2 (parent)
chain: RAGHHPNQYATCRLCGRQVSRGPG

Variants of: B1
Test: protein stability index of a GFP-peptide fusion (GPS, HEK-293T) (PSI 1-6); higher = more stable
Conditions: c terminus: a fixed tail appended
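Further: lentivirally expressed fusions sorted by FACS into six bins by GFP to DsRed ratio, PSI derived from sequencing read proportions per bin multiplied by bin number.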

First: RAGHHPNKYATCRLCGRQVSRGPG [Q8K]
Second: RAGHHPNYYATCRLCGRQVSRGPG [Q8Y]
The protein stability index of the first is higher: 2.78 for the first, 1.13 for the second.

Compared with RAGHHPNMYATCRLCGRQVSRGPG [Q8M], RAGHHPNGYATCRLCGRQVSRGPG [Q8G] is higher in protein stability index: 1.23 for the first, 1.86 for the second.

Going from RAGHHPNDYATCRLCGRQVSRGPG [Q8D] to RAGHHPNNYATCRLCGRQVSRGPG [Q8N], the protein stability index falls from 3.31 to 1.68.

Going from RAGRHPNQYATCRLCGRQVSRGPG [H4R] to RAGYHPNQYATCRLCGRQVSRGPG [H4Y], the protein stability index rises from 1.12 to 1.24.

Compared with RAGLHPNQYATCRLCGRQVSRGPG [H4L], RAGKHPNQYATCRLCGRQVSRGPG [H4K] is lower in protein stability index: 1.78 for the first, 1.56 for the second.

First: RAGVHPNQYATCRLCGRQVSRGPG [H4V]
Second: RAGNHPNQYATCRLCGRQVSRGPG [H4N]
The protein stability index of the first is lower: 2.31 for the first, 3.52 for the second.

First: RAGTHPNQYATCRLCGRQVSRGPG [H4T]
Second: RAGHHPNQYITCRLCGRQVSRGPG [A10I]
The protein stability index of the first is higher: 2.78 for the first, 1.43 for the second.

Compared with RAGHHPNQYCTCRLCGRQVSRGPG [A10C], RAGHHPNQYTTCRLCGRQVSRGPG [A10T] is higher in protein stability index: 2.67 for the first, 2.78 for the second.

Going from RAGHHPNQYLTCRLCGRQVSRGPG [A10L] to RAGHHPNQYNTCRLCGRQVSRGPG [A10N], the protein stability index falls from 2.12 to 1.64.

Compared with RAGHHPNQYDTCRLCGRQVSRGPG [A10D], RAGHHPNQYHTCRLCGRQVSRGPG [A10H] is higher in protein stability index: 1.79 for the first, 2.02 for the second.

Going from RAGHHPNQYKTCRLCGRQVSRGPG [A10K] to RAGHHPNQYMTCRLCGRQVSRGPG [A10M], the protein stability index rises from 1.67 to 1.8.

Going from RAGHHPNQYGTCRLCGRQVSRGPG [A10G] to RAGHHPNQYFTCRLCGRQVSRGPG [A10F], the protein stability index rises from 2.12 to 2.67.

First: RAGHHPNQYWTCRLCGRQVSRGPG [A10W]
Second: RAGHHPNQYSTCRLCGRQVSRGPG [A10S]
The protein stability index of the first is lower: 1.76 for the first, 2.2 for the second.

Compared with RAGHHPNQYETCRLCGRQVSRGPG [A10E], RAGHHPNQYVTCRLCGRQVSRGPG [A10V] is lower in protein stability index: 1.6 for the first, 1.43 for the second.

Compared with RAGHHPNQYYTCRLCGRQVSRGPG [A10Y], RAGHHPNQYRTCRLCGRQVSRGPG [A10R] is higher in protein stability index: 1.34 for the first, 1.43 for the second.

Going from RAGHHPNQYATCQLCGRQVSRGPG [R13Q] to RAGHHPNQYATCYLCGRQVSRGPG [R13Y], the protein stability index rises from 1.04 to 2.42.

Compared with RAGHHPNQYATCVLCGRQVSRGPG [R13V], RAGHHPNQYATCILCGRQVSRGPG [R13I] is lower in protein stability index: 2.39 for the first, 2.09 for the second.

Going from RAGHHPNQYATCFLCGRQVSRGPG [R13F] to RAGHHPNQYATCSLCGRQVSRGPG [R13S], the protein stability index rises from 1.36 to 2.79.

Going from RAGHHPNQYATCKLCGRQVSRGPG [R13K] to RAGHHPNQYATCWLCGRQVSRGPG [R13W], the protein stability index falls from 2.1 to 1.98.

Compared with RAGHHPNQYATCDLCGRQVSRGPG [R13D], RAGHHPNQYATCMLCGRQVSRGPG [R13M] is higher in protein stability index: 1.96 for the first, 2.24 for the second.

First: RAGHHPNQYATCELCGRQVSRGPG [R13E]
Second: RAGHHPNQYATCPLCGRQVSRGPG [R13P]
The protein stability index of the first is lower: 1.9 for the first, 3.18 for the second.

First: RAGHHPNQYATCLLCGRQVSRGPG [R13L]
Second: RAGHHPNQYATCTLCGRQVSRGPG [R13T]
The protein stability index of the first is lower: 1.58 for the first, 2.4 for the second.

First: RAGHHPNQYATCHLCGRQVSRGPG [R13H]
Second: RAGHHPNQYATCRLCGRYVSRGPG [Q18Y]
The protein stability index of the first is lower: 1.59 for the first, 2.51 for the second.

Work on RAGHHPNQYATCRLCGRPVSRGPG [Q18P] yielded a protein stability index of 2.69.
